Measured values from article PMC4100929, “Pax6 Regulates the Expression of Dkk3 in Murine and Human Cell Lines, and Altered Responses to Wnt Signaling Are Shown in FlpIn-3T3 Cells Stably Expressing Either the Pax6 or the Pax6(5a) Isoform”.

B1: mDkk3 5aCON OPT (dsDNA)
DNA 1: GGAGGAAGCTATGCTCAGTGAGATGTTCATTGAGGTGGAGGAG
DNA 2: CTCCTCCACCTCAATGAACATCTCACTGAGCATAGCTTCCTCC
B2: mDkk3 BSAP WT (dsDNA)
DNA 1: CATCTGGGGGCGGGCAGAGCAGCGGGGCGGGGCGGGACGGGCAAGAGGGG
DNA 2: CCCCTCTTGCCCGTCCCGCCCCGCCCCGCTGCTCTGCCCGCCCCCAGATG
B3: mDkk3 5aCON MUT (dsDNA)
DNA 1: GGAGGAAGCTACCCTGTATCCGATTTTTCGAGAGGTGGAGGAG
DNA 2: CTCCTCCACCTCTCGAAAAATCGGATACAGGGTAGCTTCCTCC

Experiments:
Details in all cases: protein: recombinant; label: 32P 5' end; blunt
[1] = target: T1, GST-Pax6 paired domain (PD) (UniProt P63015 4-130); test: EMSA; stronger than WT; EMSA: 2 ug protein, 20000 cpm 32P probe, 1 ug poly(dI-dC), 5% TBE polyacrylamide gel; buffer, salt, pH and temperature not given (as in ref. 35)
[2] = target: GST-Pax6(5a) paired domain (PD5a) (UniProt P63015-2 4-144); test: EMSA; EMSA: 2 ug protein, 20000 cpm 32P probe, 1 ug poly(dI-dC), 5% TBE polyacrylamide gel; buffer, salt, pH and temperature not given (as in ref. 35)
[3] = target: T1, GST-Pax6 paired domain (PD); test: as above

T1 sequence (P63015 4-130): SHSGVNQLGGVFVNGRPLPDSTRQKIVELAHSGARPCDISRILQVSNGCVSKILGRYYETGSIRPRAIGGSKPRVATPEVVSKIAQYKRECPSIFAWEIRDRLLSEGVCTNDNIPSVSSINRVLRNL
Sequence of GST-Pax6(5a) paired domain (PD5a) (P63015 other isoform, or with tags, fused parts or gaps): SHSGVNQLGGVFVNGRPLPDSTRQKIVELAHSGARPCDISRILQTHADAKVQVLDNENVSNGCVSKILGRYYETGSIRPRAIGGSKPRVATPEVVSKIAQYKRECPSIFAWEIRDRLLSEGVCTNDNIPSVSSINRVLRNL

Binder | binding result [1] | binding result [2] | binding result [3]
B1 | binds |  | 
B2 |  | no binding | binds
B3 | binds |  | 
